Results on four molecules are retold here after patent US11390894B2, “Biological processes for the production of aryl sulfates” (CysBio ApS, priority 2014, dated 2022).

Common to all, as to format: cell-based, Escherichia coli
The subject of data set [1] is pHCA. As to the kind of experiment: Production of zosteric acid in E. coli from pHCA through heterologous expression of sulfotransferases. Particulars: culture media; M9 glucose, 0.1 mM IPTG, 0.1 mM pHCA, four days of growth. An excerpt: A range of aryl sulfotransferases including SULT1A1 Rattus norvegicus (SEQ ID NO: 1), SULT1A1 Homo sapiens (SEQ ID NO: 2), SULT1A1 Equus caballus (SEQ ID NO: 3), SULT1A1 Sus scrofa domesticus (SEQ ID NO: 4), SULT1A1 Canis lupus familiaris (SEQ ID NO: 5) and SULT1E1 Gallus gallus domesticus (SEQ ID NO: 6) were expressed in Escherichia coli. […]. The nucleotide sequence of the gene encoding SEQ ID NO: 2 was codon optimized for expression in Escherichia coli (GeneArt, Life Technologies) and amplified by PCR using the primers in Table 1. The pETDuet-1 plasmid was digested with restriction endonucleases Ncol and Sal. The PCR products were then individually cloned into the plasmid pETDuet-1 using the Gibson reaction (New England Biolabs). The resulting plasmids were transformed into BL21(DE3)pLysS (Life Technologies).
(§1) The strains were grown in M9 minimal media containing glucose as a carbon source, and 0.1 mM IPTG for induction of gene expression as well as 0.1 mM p-coumaric acid (pHCA). After four days of growth, samples were withdrawn by filtration and analyzed by HPLC.
(§2) The concentration of p-courmaric acid (pHCA) and zosteric acid in the supernatant was quantified by high performance (HPLC) and compared to chemical standards. HPLC was done on a Thermo setup using a HS-F5 column and mobile phases: 5 mM ammonium formate pH 4.0 (A) and acetonitrile (B) at 1.5 mL min-1, using a gradient elution starting at 5% B. From 0.5 min after injection to 7 min, the fraction of B increased linearly from 5% to 60%, and between 9.5 min and 9.6 the fraction of B decreased back to 5%, and remaining there until 12 min. pHCA and zosteric acid were quantified by measuring absorbance at 277 nm.
Zosteric acid was formed with an aryl sulfotransferase heterologously expressed in a microorganism exemplified by E. coli supplied with the substrate.

Data set [2] relates to resveratrol. Description: Percent conversion of substrate by E. coli cells expressing sulfotransferases. Particulars: 95 μM resveratrol, M9 medium, overnight 37° C. As to the method:
as §2
(§3) Different sulfotransferases were examined for their substrate specificities against three substrates. We tested the sulfotransferases mentioned in example 1, as well as additional ones. The genes encoding these were cloned as described in example 1 using the primers shown in the table below from cDNA libraries of the respective organisms, except for the SULT1A1 from rat (Rattus norvegicus) codon-optimized for E. coli (described above). The resulting vectors were transformed into BL21(DE3)pLysS.
(§4) The resulting strains were grown in M9 medium containing either 100 μM pHCA, 95 μM resveratrol or 87 M kaempferol. The cultures were grown overnight at 37° C., 300 rpm. The following day the supernatants were isolated and examined by HPLC as described in example 1.

Data set [3] concerns pHCA. The description is as above. The following applies: 100 μM pHCA, M9 medium, overnight 37° C. The method, then:
as §2, §3, §4

Data set [4] deals with kaempferol. Described as above. Particulars: 87 μM kaempferol, M9 medium, overnight 37° C. As to the method: as §2, §3, §4
Data set [5] relates to pHCA. Description: Zosteric acid production in E. coli expressing an aryl sulfotransferase in combination with cysDNC and cysQ. Particulars: grown as in Example 1 (0.1 mM pHCA). As to the method: as §1, §2
The plasmid pRSFDuet-1 (Life Technologies) was digested by the restriction endonucleases NdeI and BgIII. The gene cluster was inserted into the digested plasmid using the Gibson reaction (New England Biolabs). […] For the combined expression of cysDNC and cysQ in an artificial operon, cysDNCQ, the two parts were amplified by PCR from E. coli MG1655 chromosomal DNA using the primers shown in Table 3. Again the parts were inserted into the digested plasmid. […] The plasmid expressing SULT1A1 Homo sapiens (SEQ ID NO: 2) from example 1 was co-transformed into E. coli BL21(DE3)pLysS cells (Life Technologies) with either the plasmid expressing cysDNC or cysDNCQ.
Cells were grown as in Example 1 and the supernatants were analyzed for product formation as in example 1. The strain expressing SULT1A1 in combination with cysDNCQ was also grown without the addition of IPTIG for induction.

B1: SULT1A1 Sus scrofa domesticus: aryl sulfotransferase SULT1A1 Sus scrofa domesticus (SEQ ID NO: 4) (protein, listed as Sus scrofa)
chain: MEPVQDTYRPPLEYVKGVPLIKYFAEALGPLESFQAWPDDVLISTYPKSGTTWVSEILDLIYQGGDLQKCQRAPIFVRVPFLEFKIPGCPTGFELLKDTPAPRLLKTHLPLALLPQTLLDQKVKVVYVARNAKDVAVSYYHFYRMAKVHPNPGTWDSFLEDFMAGEVSYGSWYQHVQEWWELRHTHPVLYLFYEDMKENPKREIQKILEFVGRSLPEETVEDIVQHTSFQEMKNNAMTNYRTLPSDLLDHSISAFMRKGITGDWKSTFTVAQNERFEADYAEKMAGCNLRFRSEL
Consider B1, for which, in data set [1], the Zosteric acid formed came out at 0.01 mM and the pHCA remaining stood at 0.09 mM. In addition, the “percent conversion of resveratrol” value in data set [2] came out at 88%. Moreover, the “percent conversion of pHCA” value in data set [3] was determined as 8%. The “percent conversion of kaempferol” value in data set [4] worked out at 45%.

B2: SULT1A1 Homo sapiens, CysDNC: SULT1A1 Homo sapiens co-expressed with E. coli cysDNC (ATP sulfurylase and APS kinase) (protein, UniProt P50225 1-295, looked up)
Sulfotransferase 1A1: MELIQDTSRPPLEYVKGVPLIKYFAEALGPLQSFQARPDDLLISTYPKSGTTWVSQILDMIYQGGDLEKCHRAPIFMRVPFLEFKAPGIPSGMETLKDTPAPRLLKTHLPLALLPQTLLDQKVKVVYVARNAKDVAVSYYHFYHMAKVHPEPGTWDSFLEKFMVGEVSYGSWYQHVQEWWELSRTHPVLYLFYEDMKENPKREIQKILEFVGRSLPEETVDFVVQHTSFKEMKKNPMTNYTTVPQEFMDHSISPFMRKGMAGDWKTTFTVAQNERFDADYAEKMAGCSLSFRSEL
modifications: co-expressed with E. coli cysDNC
With B2, in data set [5] (induction 0.1 mM IPTG), the Zosteric acid formed turned out to be 0.06 mM and the pHCA remaining is 0.06 mM.

B3: SULT1A1 Homo sapiens, CysDNCQ: SULT1A1 Homo sapiens co-expressed with E. coli artificial operon cysDNCQ (plus PAP phosphatase cysQ) (protein, UniProt P50225 1-295, looked up)
Sulfotransferase 1A1: B2 Sulfotransferase 1A1
modifications: co-expressed with E. coli cysDNCQ
With B3, in data set [5] (induction 0.1 mM IPTG), the Zosteric acid formed was 0.09 mM and the pHCA remaining stood at 0.04 mM. Besides, the pHCA remaining in data set [5] (induction None) was 0.10 mM.

B4: SULT1A1 Equus caballus: aryl sulfotransferase SULT1A1 Equus caballus (SEQ ID NO: 3) (protein, listed as Equus caballus)
chain: MELIQDTSRPPLKYVKGVPLIKYFAEALGPLQSFQARPDDLLISTYPKSGTTWVSEILDMIYHGGDLEKCRRAPIFIRVPFLEFKAPEIPSGVEVLKDTPAPRLLKTHLPLSLLPQTLLDQKVKVVYLARNAKDVAVSYYHFYRMAKVHPDPGTWDSFLEKFMAGEVSYGSWYKHVQEWWELSHTHPVLYLFYEDMKENPKKEIQKILEFVGRSLPEETLDRIVQHTSFKEMKKNPMANYSTIPCDIMDHNISAFMRKGIAGDWKNTFTVAQNEHFDTDYAEKMAGCKLSFRSEV
In data set [1], B4 had a Zosteric acid formed of 0.01 mM and a pHCA remaining of 0.09 mM. The “percent conversion of resveratrol” value in data set [2] stood at 100%. For the same molecule, in data set [3], the “percent conversion of pHCA” value came to 21%. In data set [4], the “percent conversion of kaempferol” value worked out at 96%.
